Holding throughout (experiment): ITC
Test [1] has as its target human CBX3 chromodomain double mutant K46A/D62F (HP1α numbering) (His-tagged) (human).
Test [2] addresses human CBX1 chromodomain double mutant K46A/D62F (HP1α numbering) (His-tagged) (human).
Test [3] concerns the target HP1α K46A/E52D/D62F engineered chromodomain (His-tagged) (D. melanogaster) (UniProt P05205).
The target in test [4] is HP1α chromodomain from D. melanogaster, wild-type (His-tagged) (D. melanogaster) (UniProt P05205).
For test [5], the target named is human CBX3 chromodomain, wild-type (His-tagged) (human) (UniProt Q13185).
Test [6] concerns the target human CBX1 chromodomain, wild-type (His-tagged) (human) (UniProt P83916).

pKd: −log10 of the molar value.

Sequence of UniProt Q13185 (Q13185 25-81): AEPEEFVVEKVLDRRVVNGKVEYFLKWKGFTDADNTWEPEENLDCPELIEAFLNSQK
Sequence of UniProt P83916 (P83916 15-73): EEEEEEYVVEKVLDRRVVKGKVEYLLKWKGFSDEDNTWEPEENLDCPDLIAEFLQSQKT

As a reminder, the pKd is the Kd on a negative log10 scale, so that one unit is a factor of ten. Take H3K9me3 peptide (used in ITC): the pKd was 6.40 in test [1]; 6.89 in test [2]; 6.15 in test [3]; 4.85 in test [4]; 5.52 in test [5]; 6.22 in test [6].
